The values that follow come from US20240091374A1 (AbbVie / Abbott, published 2024).

The assay has as its target T1, Seizure-related homolog 6 (SEZ6) (UniProt Q53EL9 20-994, limits assumed).
T1 sequence (looked up): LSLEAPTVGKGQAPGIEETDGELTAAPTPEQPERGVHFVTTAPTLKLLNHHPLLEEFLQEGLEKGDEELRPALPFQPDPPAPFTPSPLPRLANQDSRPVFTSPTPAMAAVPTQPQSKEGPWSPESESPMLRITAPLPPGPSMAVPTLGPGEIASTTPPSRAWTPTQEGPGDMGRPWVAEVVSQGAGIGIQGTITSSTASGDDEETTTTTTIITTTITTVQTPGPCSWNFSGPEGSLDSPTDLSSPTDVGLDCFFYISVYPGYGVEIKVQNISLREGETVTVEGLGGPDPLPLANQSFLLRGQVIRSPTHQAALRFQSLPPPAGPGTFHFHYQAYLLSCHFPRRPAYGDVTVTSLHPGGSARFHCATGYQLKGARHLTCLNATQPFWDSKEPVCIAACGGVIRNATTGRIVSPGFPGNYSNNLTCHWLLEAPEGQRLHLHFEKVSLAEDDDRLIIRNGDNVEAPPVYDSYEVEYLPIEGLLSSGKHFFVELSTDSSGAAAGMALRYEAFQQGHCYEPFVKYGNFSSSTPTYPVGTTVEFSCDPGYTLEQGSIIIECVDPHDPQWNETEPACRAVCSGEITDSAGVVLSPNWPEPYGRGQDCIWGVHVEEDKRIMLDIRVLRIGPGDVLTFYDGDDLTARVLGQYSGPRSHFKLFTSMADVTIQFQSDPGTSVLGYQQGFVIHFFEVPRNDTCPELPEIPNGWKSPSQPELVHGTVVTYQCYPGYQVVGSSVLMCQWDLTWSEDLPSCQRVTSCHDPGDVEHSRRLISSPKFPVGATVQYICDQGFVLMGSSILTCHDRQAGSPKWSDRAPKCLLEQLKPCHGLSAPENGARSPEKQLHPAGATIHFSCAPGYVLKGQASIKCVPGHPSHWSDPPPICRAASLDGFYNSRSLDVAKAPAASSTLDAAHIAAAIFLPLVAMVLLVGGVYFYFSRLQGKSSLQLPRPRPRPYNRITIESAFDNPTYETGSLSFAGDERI
The assay is described as follows: cell-based or functional assay.

B1: ADC-1 (anti-SEZ6 antibody Ab conjugated to TOP1i linker drug LD1, formula (IV), DAR about 6) (antibody, V domains shown)
VH: EVQLVQSGAEVKKPGESLKISCKGSGYSFTSSWINWVRQMPGKGLEWMGRIYPGEGDTNYNGNFEGQVTISADKSISTAYLQWSSLKASDTAMYYCTRGLVMDYWGQGTLVTVSS
VL: EIVLTQSPATLSLSPGERATLSCRASQSVDYNGISYMHWYQQKPGQAPRLLIYAASNVQSGIPARFSGSGSGTDFTLTISSLEPEDFAVYYCQQSIEDPPTFGGGTKVEIKR
modifications: linker drug LD1 (Example 1J, formula (III)) on sulfhydryl groups of cysteine residues after global reduction; positions not given; linker drug LD1 (Example 1J, formula (III)) on sulfhydryl groups of cysteine residues after global reduction; DAR of about 6 over the whole antibody, predominant species n = 6; positions not given
In the case of B1, the “growth inhibitory IC50, CellTiter-Glo cell viability, 10 days, COR-L95 cells (SEZ6 mRNA positive)” value came to 0.33 nM; the “growth inhibitory IC50, CellTiter-Glo cell viability, 10 days, NCI-H146 cells (SEZ6 mRNA positive)” value was 0.05 nM; the “growth inhibitory IC50, CellTiter-Glo cell viability, 10 days, NCI-H524 cells (SEZ6 mRNA positive)” value amounted to 0.33 nM; the “growth inhibitory IC50, CellTiter-Glo cell viability, 10 days, NCI-H526 cells (SEZ6 mRNA positive)” value was determined as 0.1 nM. Moreover, the “growth inhibitory IC50, CellTiter-Glo cell viability, 10 days, NCI-H1963 cells (SEZ6 mRNA positive)” value came to 4.63 nM and the “growth inhibitory IC50, CellTiter-Glo cell viability, 10 days, row without a cell line label below COR-L95 (taken as a second COR-L95 value)” value was 0.29 nM.
